Measured values: US9518084B2, “Epitope tag for affinity-based applications” (VIB VZW, priority 2010, dated 2016)

Experiments:
[1] = molecular target: Peptide N-YEPEA-C (SEQ ID NO: 11), residues Y136-A140 of full-length α-synuclein (Homo sapiens, UniProt P37840); assay: Isothermal titration calorimetry (ITC) of NbSyn2 binding to C-terminal peptide fragment of α-synuclein
Procedure: Calorimetric measurements were recorded using a MCS-ITC calorimeter (MicroCal, LLC, Northampton, Mass., USA). […] Both proteins were dialyzed prior to measurements in exactly the same buffer containing 10 mM phosphate, 150 mM sodium chloride at a pH of 7.4. Each injection was performed every four minutes at the desired temperature. […] The thermodynamic analysis was performed using the Microcal analysis software (Origin 7.0) with a 1:1 binding model. The temperature dependence of ΔH, allowed the calculation of ΔCp through the relationship ΔCp=δΔH/δT. The contribution of protonation to the ΔH was evaluated using a 10 mM Tris-HCL buffer 100 mM NaCl at pH 7.4.

[2] = tested on: EPEA (SEQ ID NO:1)-tagged Rev protein; assay: In vivo detection of EPEA-tagged Rev in transfected HeLa cells by confocal microscopy; type: cell-based, HIV; settings: nanobody fused to mKO1 or GFP, GYQDYEPEA and EPEA tags
Source text: In another set of experiments, we explored the use of the EPEA (SEQ ID NO:1) tag to detect/visualize the expression of recombinant proteins within a (living) eukaryotic cell. […] Cells that are double-transfected with Rev-[sequence] (SEQ ID NO:10) or Rev-[sequence]
The two different tags [sequence] (SEQ ID NO:2) and EPEA (SEQ ID NO:1) were C-terminal fused to Rev by PCR using Takara Ex Taq polymerase (TAKARA BIO INC).
HeLa, human epithelial cells were maintained using standard procedures until confluent in DMEM medium with 10% fetal calf serum. For transfection of plasmid DNA in HeLa, cells were harvested by a Trypsin/EDTA treatment, counted and plated onto glass bottom microwell dishes (MatTek corporation). Transfections were preformed according to manufacturer's manual: the 4×10^5 cells were seeded in a 35 mm dish. […]
Transfected HeLa cells were imaged with a laser scanning SP5 confocal microscope (Leica Microsystems) equipped with an AF 6000 microscope and an AOBS, using a HCX PL APO×63 (NA 1.2) water immersion objective magnification. GFP was monitored with the Ar laser using the 488-nm line for excitation, and emission was detected between 492 and 570 nm. mKusabira orange fluorescent protein (mKO) was imaged using the DPSS-561 nm laser for excitation, and emission was detected between 570 and 675 nm.

NbSyn2: Nanobody that specifically binds to α-synuclein, 126 amino acids, SEQ ID NO:21
Kd ([1]; 293.1 K): 240 ± 26 nM | Kd ([1]; 298.1 K): 190 ± 30 nM | Kd ([1]; 303.1 K): 460 ± 110 nM | Kd ([1]; 310.1 K): 850 ± 130 nM | Recognition of tagged Rev in double-transfected cells (colocalization in the nucleus) [2]: recognized in vivo
